According to patent publication US20230151437A1, “USE OF PROTEIN ASSEMBLIES TO RECORD CELLULAR EVENTS” (President and Fellows of Harvard College, priority 2021, published 2023):

Legend:
HEK cells [1] = experiment: Live-dead assay in HEK cells expressing iPAK4 assemblies; assay type: cell-based; settings: n=24 fields of view
From the text: FIGS. 9A-9C show a live-dead assay to assess the effect of iPAK4 assemblies on cell health. Related to FIG. 1A, FIG. 9A provides images of HEK293T cells expressing CMV::iPAK4 (95%) and CMV::HT-iPAK4 (5%). Many iPAK4 assemblies can be identified in a magnified view. […] Live cells (calcein-AM), dead cells (EthD-1), and HaloTag-iPAK4 stained with JFX608 are shown. FIG. 9C provides a statistical comparison of the dead cell population in iPAK4+ and iPAK4− groups. Each point represents one field of view. Two dishes per condition were investigated. […] The statistical comparison was performed by student's t-test. Lower and upper bounds of the box plot: 25th and 75th percentile; lower and upper whiskers: minimum and maximum; squares: mean; center lines: median.
It was then determined whether the iPAK4 assemblies affect cell survival, as the assemblies often grew longer than the cell diameters (FIG. 6A).

cultured neurons [2] = experiment: Live-dead assay in cultured neurons expressing iPAK4 assemblies; assay type: cell-based, rat; settings: assemblies grown for 6 days
Experimental: Related to FIG. 5. […] Staining of live cells (calcein-AM) and dead cells (EthD-1) is shown. The assay was performed at day 6 after lentiviral infection. Many iPAK4 assemblies are present in FIG. 22A (assemblies share the channel with calcein-AM). Scale bars: 200 μm. FIG. 22C provides a statistical comparison of the live-cell and dead-cell populations, and the dead/live cell ratio in iPAK4+ and iPAK4− groups (N=5 fields of view per group).
To test for effects of iPAK4 assemblies on neuronal survival, iPAK4 (95%) and HT-iPAK4 (5%) were lentivirally expressed in cultured neurons, the assemblies were allowed to grow for 6 days, and then a live-dead assay was performed (FIGS. 22A-22C). […] The iPAK4-expressing neurons had typical soma and neurite structures, similar to those observed in healthy neurons.
Primary neuron culture: Before the plating of primary hippocampal neurons, 14 mm glass-bottom dishes were first incubated with 40 μg/ml poly-D-lysine (PDL) in PBS at room temperature for 1 h and subsequentially with 20 μg/ml laminin (Fisher Scientific; 23-017-015) at 4° C. overnight, followed by thorough wash with PBS. […] Neuronal health was monitored daily from DIV1 to DIV7. […]

HEK cells [3] = experiment: HT dye switch fluorescence profiles of HT-iPAK4 assemblies in HEK cells; assay type: cell-based; settings: dishes fixed at 8 h vs 30 h (22 h, one day)
Experimental: To test whether assemblies could encode HT dye timestamps, HEK cells growing HT-iPAK4 assemblies were successively washed with different colors of HT-ligand dyes at Δt=2 h intervals in the sequence JF503, JF669, JFX608, JF503, JF669 (FIG. 2A; see FIGS. 11A-11B for dye structures, photophysical properties, and synthesis of JFX608). The cells were then fixed and imaged with spectrally resolved confocal microscopy. Clear progression of colored bands matching the sequence of dye additions was observed.
To test the limits of how fast dye transitions could be encoded, assemblies were made with seven dye switches at Δt=1 h. At this short interval, peaks were still visible, but their amplitude was suppressed relative to the parts of the assembly with no dye switches, indicating incomplete transitions in dye labeling (FIG. 12E).
A protein ticker tape may stably store its information for extended times. […] The fluorescence profiles for the section of the assemblies that grew concurrently (from t=0 to 8 h) were then compared. […]
Image processing and data analysis: Images of individual assemblies were rotated to align the long axis to the x-axis. Fluorescence profiles were then calculated as the median fluorescence in each spectral channel across the width of the assembly. […] Dye transitions were identified as local maxima in the second derivative of the dye fluorescence as a function of position. […]

cultured neurons [4] = experiment: Patch clamp electrophysiology of neurons with iPAK4 assemblies; assay type: cell-based, rat; settings: N=11, mean±s.e.m.
Experimental: FIGS. 5A-5H show protein ticker tape recordings of cFos activation in neurons. FIG. 5A provides an image of a cultured neuron expressing lentiviral CMV::iPAK4 (90%) and CMV::eGFP-iPAK4 (10%). Scale bar 50 μm. […] Spikes were evoked by a current injection of 100 pA. […] Error bars show mean±s.e.m. Two-sided Student's t-test was employed for data comparison. […] Scale bar 5 μm.
Whether iPAK4 assemblies affected neuronal electrophysiology was then tested. Neurons infected with lentivirus encoding CMV::iPAK4 (90%) and CMV::eGFP-iPAK4 (10%) grew single straight assemblies (FIG. 5A). Patch clamp recordings were used to compare the electrophysiology of neurons with and without assemblies. Although in many cases the assembly length was several times longer than the soma diameter, neurons with assemblies spiked normally (FIG. 5B), and had membrane resistance, membrane capacitance, resting potential, and rheobase that were statistically indistinguishable from neurons without assemblies (N=11 neurons with assemblies, N=12 without, two-sided Student's t-test, FIG. 5C).
Patch clamp electrophysiology: Whole-cell recordings were performed in extracellular buffer containing (in mM): 125 NaCl, 2.5 KCl, 15 HEPES, 25 D-glucose, 1 MgCl2, and 2 CaCl2 (pH=7.2-7.3 with NaOH). Assembly-forming and non-forming (control) neurons were visualized with a home-built inverted epifluorescence microscope. Experiments were made at 23° C. under ambient atmosphere. The whole-cell internal solution comprised (in mM): 8 NaCl, 130 KMeSO3, 10 HEPES, 5 KCl, 0.5 EGTA, 4 Mg-ATP, and 0.3 Na3-GTP. The pH was adjusted to 7.2-7.3 with KOH and osmolarity was set to 290-295 mOsm/L. Borosilicate glass pipettes were used with a resistance of 3-5 MΩ (1.5 mm OD). Signals were acquired and filtered at 4 kHz with the internal Bessel filter using a Multiclamp 700B (Molecular Devices) and digitized with PCIe-6323 (National Instruments) at 10 kHz. Following the whole-cell configuration, membrane capacitance (Cm), and membrane resistance (Rm) were estimated under voltage-clamp mode. Measurements of resting membrane potential (Vrest), rheobase, and spike rates were made under current-clamp mode. Rheobase was defined as the minimum current step (in 500 ms duration) required for any spike onset. Whole-cell recordings were monitored and analyzed using a custom code written in LabView and Matlab.

B1: iPAK4: fusion of the catalytic domain of the Pak4 kinase and the 38 amino acid iBox domain of its inhibitor Inka1 (SEQ ID NO: 1) (protein)
chain: MDYKDDDDKSGSEAEDWTAALLNRGRSRQPLVLGDNCFADLVHNWMELPEEFPAAPAVPGPPGPRSPQREPQRVSHEQFRAALQLVVDPGDPRSYLDNFIKIGEGSTGIVCIATVRSSGKLVAVKKMDLRKQQRRELLFNEVVIMRDYQHENVVEMYNSYLVGDELWVVMEFLEGGALTDIVTHTRMNEEQIAAVCLAVLQALSVLHAQGVIHRDIKSDSILLTHDGRVKLSDFGFCAQVSKEVPRRKSLVGTPYWMAPELISRLPYGPEVDIWSLGIMVIEMVDGEPPYFNEPPLKAMKMIRDNLPPRLKNLHKVSPSLKGFLDRLLVRDPAQRATAAELLKHPFLAKAGPPASIVPLMRQNRTR
- dead cells (HEK cells [1]): 0.267±0.139%
- fraction of dead cells vs dishes not infected with any lentivirus (cultured neurons [2]): no significant difference
- monomer exchange in the assembly (HEK cells [3]): negligible
- membrane capacitance (cultured neurons [4]): 63±6 pF
- membrane resistance (cultured neurons [4]): 404±73 MΩ
- resting potential (cultured neurons [4]): −61.2±1.2 mV
- rheobase (cultured neurons [4]): 89±12 pA
